The assay has as its target mu opioid receptor (Homo sapiens), P35372. As to the kind of experiment: competition. Conditions: modification not given.

mu opioid receptor (Homo sapiens), P35372, sequence (P35372 whole entry): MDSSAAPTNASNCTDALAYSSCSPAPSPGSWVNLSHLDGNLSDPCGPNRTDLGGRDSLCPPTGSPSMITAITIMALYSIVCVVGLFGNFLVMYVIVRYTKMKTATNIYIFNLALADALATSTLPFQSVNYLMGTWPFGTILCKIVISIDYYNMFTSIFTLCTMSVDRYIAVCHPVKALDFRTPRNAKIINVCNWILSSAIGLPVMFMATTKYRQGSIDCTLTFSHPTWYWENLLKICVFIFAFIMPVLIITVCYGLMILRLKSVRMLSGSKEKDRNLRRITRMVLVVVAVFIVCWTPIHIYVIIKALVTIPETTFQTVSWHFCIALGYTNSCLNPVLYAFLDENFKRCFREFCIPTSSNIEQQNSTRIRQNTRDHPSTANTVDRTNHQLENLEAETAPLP

Broadly, the Ki is the dissociation constant of the complex between target and ligand, obtained from inhibition or displacement. With YAGFL [DADLE], the Ki was 1.58 nM.

Values taken from publication PMC6943441, “The Meta-Position of Phe^4 in Leu-Enkephalin Regulates Potency, Selectivity, Functional Activity, and Signaling Bias at the Delta and Mu Opioid Receptors” (Molecules, 2019).
